Legend:
[1] = target: Retromer (His10-SNAP-VPS26/VPS35/VPS29 trimer, AF488-labeled) (human) (UniProt O75436)
[2] = target: Retromer (His10-SNAP-VPS26/VPS35/VPS29 trimer, AF488-labeled) (human) (UniProt O75436); remark: listed apart in the source

Retromer (His10-SNAP-VPS26/VPS35/VPS29 trimer, AF488-labeled) (from UniProt O75436;Q96QK1;Q9UBQ0) (complex)
mean Retromer complexes per cluster (Retromer complexes per cluster) [1]: 2.7 | percent of particles that are dimers [2]: 35% | percent of particles that are monomers [2]: 18% | percent of particles that are pentamers or higher-order oligomers up to ten [2]: 10% | percent of particles that are tetramers [2]: 13% | percent of particles that are trimers [2]: 24%
